Assay results taken from publication PMC8339339 (Redox Biology, 2021).

Molecular target: the molecule itself
Test: non-reducing SDS-PAGE with immunoblot

B1: His-tagged human recombinant peroxiredoxin 1 with Cys83 changed to Ser83 (natural protein)
chain: MSSGNAKIGHPAPNFKATAVMPDGQFKDISLSDYKGKYVVFFFYPLDFTFVCPTEIIAFSDRAEEFKKLNCQVIGASVDSHFSHLAWVNTPKKQGGLGPMNIPLVSDPKRTIAQDYGVLKADEGISFRGLFIIDDKGILRQITVNDLPVGRSVDETLRLVQAFQFTDKHGEVCPAGWKPGSDTIKPDVQKSKEYFSKQK
stoichiometry N: 2
